Measured values from IntAct's records for PubMed 17408621.

Target: ccnb2_human CCNB2 (UniProt O95067)
Sequence of UniProt O95067 (O95067 whole entry): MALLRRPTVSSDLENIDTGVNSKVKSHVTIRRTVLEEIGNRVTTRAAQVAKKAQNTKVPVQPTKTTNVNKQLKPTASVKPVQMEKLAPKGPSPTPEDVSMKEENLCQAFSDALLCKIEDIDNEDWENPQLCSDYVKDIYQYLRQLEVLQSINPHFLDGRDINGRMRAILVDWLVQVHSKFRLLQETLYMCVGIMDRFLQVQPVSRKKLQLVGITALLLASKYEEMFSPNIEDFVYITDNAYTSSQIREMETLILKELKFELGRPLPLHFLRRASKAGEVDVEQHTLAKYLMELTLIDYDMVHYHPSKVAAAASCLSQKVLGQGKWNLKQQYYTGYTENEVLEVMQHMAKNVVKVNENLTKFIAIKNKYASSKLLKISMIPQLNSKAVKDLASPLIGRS

Substance: Filamin-A (Homo sapiens), P21333 S1436G
- effect of a mutation on the interaction: disrupting interaction
